From patent publication US20240207462A1 (ABDERA THERAPEUTICS, published 2024)

Target: T1, human DLL3.FLAG (Adipogen #AG-40B-0151, amino acid 27-466) (human, UniProt Q9NYJ7 27-466)
T1 construct: range 27-466; The ELISA used human DLL3.FLAG or human DLL3.HIS (abcam #ab255797, amino acid 27-492); not shown: FLAG tag
T1 sequence (looked up): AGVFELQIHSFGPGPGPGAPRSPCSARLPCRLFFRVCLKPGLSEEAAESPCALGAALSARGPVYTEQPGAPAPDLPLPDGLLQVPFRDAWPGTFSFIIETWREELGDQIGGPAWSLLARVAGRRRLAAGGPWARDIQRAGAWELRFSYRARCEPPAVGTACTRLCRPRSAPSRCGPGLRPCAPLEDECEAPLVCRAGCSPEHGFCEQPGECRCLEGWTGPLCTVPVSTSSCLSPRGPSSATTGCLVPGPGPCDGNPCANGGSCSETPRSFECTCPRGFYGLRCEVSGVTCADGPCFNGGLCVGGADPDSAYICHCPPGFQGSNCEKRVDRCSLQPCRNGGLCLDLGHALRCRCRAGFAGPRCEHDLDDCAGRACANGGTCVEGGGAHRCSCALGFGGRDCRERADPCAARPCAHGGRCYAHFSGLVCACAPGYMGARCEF
Experiment: ELISA, plate coated with hDLL3-Flag, goat anti-human IgG Fc-HRP, TMB, A450

EC50 (read off the curve): ~0.08 nM
B1: Rovalpituzumab (Creative Biolabs #TAB-216CL) (antibody, V domains shown)
VH: QVQLVQSGAEVKKPGASVKVSCKASGYTFTNYGMNWVRQAPGQGLEWMGWINTYTGEPTYADDFKGRVTMTTDTSTSTAYMELRSLRSDDTAVYYCARIGDSSPSDYWGQGTLVTVSS
VL: EIVMTQSPATLSVSPGERATLSCKASQSVSNDVVWYQQKPGQAPRLLIYYASNRYTGIPARFSGSGSGTEFTLTISSLQSEDFAVYYCQQDYTSPWTFGQGTKLEIK
